In assay [1] the target is human insulin receptor complexed with human insulin (human) (UniProt P06213). The assay can be described thus: FACS, serum-starved CHO-K1 cells expressing human INSR, with insulin [cont'd]. In general terms: A flow cytometer gives signals particle by particle.
Assay [2] shares this target. The assay can be described thus: FACS, CHO-K1 human INSR cells, signal with insulin divided by signal without insulin [cont'd].
Assay [3] has the same target. Put plainly: FACS, serum-starved CHO-K1 cells expressing human INSR, with insulin.
For assay [4] the target is unchanged. The assay can be described thus: FACS competition on hINSR8-CHOK1 cells with insulin; competitor Ab019.
For assay [5] the target is unchanged. Put plainly: FACS, CHO-K1 human INSR cells, signal with insulin divided by signal without insulin.
Assay [6] concerns the target human insulin receptor (human) (UniProt P06213). The assay can be described thus: FACS, serum-starved CHO-K1 cells expressing human INSR, no insulin.
Assay [7] addresses mouse insulin receptor complexed with human insulin (mouse; human) (UniProt P15208). The assay can be described thus: FACS, CHO-K1 mouse INSR cells, signal with insulin divided by signal without insulin.
The target is the same in assay [8]. Put plainly: FACS, serum-starved CHO-K1 cells expressing mouse INSR, with insulin.
The target in assay [9] is mouse insulin receptor (mouse) (UniProt P15208). Put plainly: FACS, serum-starved CHO-K1 cells expressing mouse INSR, no insulin.
Assay [10] has the same target. The assay can be described thus: FACS, serum-starved CHO-K1 cells expressing mouse INSR, no insulin [cont'd].

A value given as a limit tells only on which side of the number the result lay.

B1: Ab082 (antibody, IgG2, V domains shown)
VH: QMQLVQSGAEVKKPGESLKISCKGSGYSFTSYWIGWVRQMPGKGLEWMGIIYPGDSDTRYSPSFQGQVTISADKSISTAYLQWSSLKASDTAMYYCARWGPDAFDIWGQGTMVTVSS
VL: EIVLTQSPDFQSVTPKETVTISCRASQNIGVSLHWYQQKPDQSPKVLIKYASQSLSGVPSRFSGTGSGTDFTLTIKSLEAEDAATYYCLQTSSLPWTFGQGTKVEIK
Regarding B1, in [1], the FACS area under log transformed data MFI is 236. In assay [2], the FACS area under log transformed data MFI ratio (+insulin/-insulin) was 0.59.

B2: Ab072 (antibody, IgG2, V domains shown)
VH: QMQLVQSGAEVKKPGESLKISCKGSGYSFTGYWIGWVRQMPGKGLEWMGIIYPGDSDTRYSPSFQGQVTISADKSISTAYLQWSSLKVSDTAMYYCGRISTPYAFDIWGQGTMVTVSS
VL: SYVLTQPPSASGTPGQRVTISCSGSNSNIGSNFVTWYQQLPGAAPKLLIYTNSQRPSGVPDRFSGSRSGTSASLAISGLQSEDEADYFCAAWDDSLNGPVFGGGTQLTVL
Regarding B2, the FACS area under log transformed data MFI in [1] was determined as 84. Also, the FACS area under log transformed data MFI ratio (+insulin/-insulin) in assay [2] was found to be 0.37.

B3: Ab061 (antibody, IgG2, V domains shown)
VH: QMQLVQSGAEVKKTGESLKISCQGYGYRFTDNWIGWVRQMPGRGLEWMGIIYPGDSETRYSPSFQGQVTISADKSISTAYLEWSSLKASDTAMYYCARHAPLAVAGMALGDWGQGTLVTVSS
VL: QTVVTQEPSFSVSPGGTVTLTCGLSSGSVSTGYSPGWYQQTPGQAPRTLVYNTNTRSSGVPDRFSGSILGNKAALTITGAQADDESDYYCALYMGSGTYVFGGGTKLTVL
B3 displayed an FACS area under log transformed data MFI in assay [3] of 59. For the same molecule, in assay [4], the percent competition was less than 30%. In addition, the FACS area under log transformed data MFI ratio (+insulin/-insulin) in assay [5] turned out to be 0.29.

B4: Ab057 (antibody, IgG2, V domains shown)
VH: QMQLVQSGAEVKKPGESLKISCKGYGYRFSDNWIGWVRQMPGRGLEWMGIIYPGDSETRYSPSFQGQVTISADKSISTAYLQWSSLKASDTAMYYCARHAPLAVAGMALGDWGQGTLVTVSS
VL: QTVVTQEPSFSVSPGGTVTLTCGLTSGSVSTSYYPSWYQQTPGQAPRMLVHSTSTRYSGVPDRFSGSILGNKAALTITGAQADDESDYYCALYMGGGIYVFGGGTQLTVL
For B4, the figures for the FACS area under log transformed data MFI in [6] and in assay [3] were 155 and 87, respectively. In addition, the FACS area under log transformed data MFI ratio (+insulin/-insulin) in assay [5] turned out to be 0.56.

B5: Ab069 (antibody, IgG2, V domains shown)
VH: EVQLVQSGAEVKKPGESLKISCKGSGYSFTSYWIGWVRQMPGKGLEWMGIIYPGDSDTRYSPSFQGQVTISADKSISIAYLQWSSLKASDTAMYYCARLGRGYYGMDVWGQGTTVTVSS
VL: SSELTQDPAVSVALGQTVRITCQGDSLRSYYASWYQQKPGQAPVLVIYGKNNRPSGIPDRFSGSRSGNTASLTITGAQAEDEADYYCNSRDSSGNHVVFGGGTKVTVL
Consider B5, for which the FACS area under log transformed data MFI in assay [3] came to 146. In addition, the FACS area under log transformed data MFI ratio (+insulin/-insulin) in assay [5] was 0.41.

B6: Ab070 (antibody, IgG2, V domains shown)
VH: EVQLVQSGAEVKKPGESLKISCKGSGYSFTSYWIGWVRQMPGKGLEWMGIIYPGDSDTRYSPSFQGQVTISADKSISTSYLQWSSLRASDTAMYYCARLGSGWYGNDYWGQGTLVTVSS
VL: SSELTQDPAVSVALGQTVRITCQGDSLRSYYTSWYQQKPGQAPVLVIFGKNNRPSGIPDRFSGSSSGNTASLTITGAQAEDEADYYCNSRDSSGNYAVFGGGTQLTVL
B6: in [1], the FACS area under log transformed data MFI turned out to be 150. Further, the FACS area under log transformed data MFI ratio (+insulin/-insulin) in [2] worked out at 0.53.

B7: Ab056 (antibody, IgG2, V domains shown)
VH: QVQLVQSGSEVKKPGASVKVSCKASGYTFTNSYMHWVRQAPGQGLEWMGIINPSAGTSYAQKFQGRVTMTRDTSTSTVYMELSSLKSEDTAVYYCARDVGWLPGDYWGQGTLVTVSS
VL: QSALTQPASVSESPGQSITISCTGTGSDIGTYNLVSWYQHHPGKAPKLMIYEVTKRPSGVSNRFSGSKSGNTASLTISGLQAEDEADYYCSSYTSSSTLYVFGTGTKLTVL
For the molecule B7, the FACS area under log transformed data MFI ratio (+insulin/-insulin) in assay [7] came out at 1.98. In addition, the FACS area under log transformed data MFI in [8] amounted to 41; in assay [9] it was 21.

B8: Ab065 (antibody, IgG2, V domains shown)
VH: QVQLVQSGAEVKKPGESLKISCKGSGYSFTSYWIGWVRQMPGKGLEWMGIIYPGDSDTRYSPSFQGQVTISADKSISTAYLQWSSLKASDTAMYYCARHELGIDYWGQGTLVTVSS
VL: QAGLTQPPSVSKGLRQTATLTCTGDNNIVGDQGAAWLQQHQGHPPKLLSFRNNSRPSGISERFSASRSRNTASLTITRLQPEDAADYYCSAWDSFLSAWVFGGGTKLTVL
As for B8, the FACS area under log transformed data MFI in assay [3] was 57. Also, in assay [5], the FACS area under log transformed data MFI ratio (+insulin/-insulin) worked out at 0.28.

B9: Ab071 (antibody, IgG2, V domains shown)
VH: EVQLVQSGAEVKKPGESLKISCKGSGYSFTSYWIGWVRQMPGKGLEWMGIIYPGDSDTRYSPSFQGQVTISADKSISTAYLQWSSLKASDTAMYYCARWDAGYSPWGQGTLVTVSS
VL: SSELTQDPAVSVALGQTVRITCQGDSLRSYYASWYQQKPGQAPVLVFYGKNNRPSGIPGRFSGSKSGNTASLTITGAQAEDEADYYCNSRDSSGNHWVFGGGTKLTVL
As for B9, the FACS area under log transformed data MFI in [1] worked out at 194. Further, in assay [2], the FACS area under log transformed data MFI ratio (+insulin/-insulin) came to 0.4.

B10: Ab050 (antibody, IgG2, V domains shown)
VH: QVQLVQSGAELKKPGATVKISCKVSGYTFGDYHMHWVKQAPGKGLEWMGLVDPENGETEYGEKFQDRITMAADTSTDTAYMELSSLRSEDTAVYYCARSPSSSGYFRVDGFDIWGQGTMVTVSS
VL: NFMLTQPHSVSESPGKTVSISCTGSSGSIGSNYVQWYQQRPGSAPTTVIYEDNQRPSGVPDRFSGSIDSSSNSASLTISGLKTEDEADYYCQSYYNSNVVFGGGTKLTVL
For the molecule B10, the FACS area under log transformed data MFI in [3] is 81. Further, the FACS area under log transformed data MFI ratio (+insulin/-insulin) in assay [5] came to 0.32.

B11: Ab059 (antibody, IgG2, V domains shown)
VH: EVQLVQSGAEVKKPGSSVKVSCKASGGTFSSYAISWVRQAPGQGLEWMGRIIPIFGIANYAQKFQGRVTITADKSTSTAYMELSSLRSEDTAVYYCAREPDYDFWNDAFDIWGQGTMVTVSS
VL: QAVLTQPASLSASPGASASLTCTLRSDISVGVYRISWYQQKPGSPPQYLLSYNSDSNNHQGSGVPSRFSGSKDASANAGILLISGLQSEDEADYYCMIWHINAWVFGGGTKVTVL
For the molecule B11, the FACS area under log transformed data MFI in assay [8] was determined as 13; in assay [9], 14.

B12: Ab078 (antibody, IgG2, V domains shown)
VH: QVQLVQSGGGLVQPGGSLRLSCAASGFTFSSYSMNWVRQAPGKGLEWVSSISSSSSYIYYADSVKGRFTISRDNAKNSLYLQMNSLRAEDTAVYYCARDQGGELLGFTGYFDYWGQGTLVTVSS
VL: DIQLTQSPSSLSASVGDRVTITCRASQGISSALAWYQQKPGKAPKVLIYDASSLERGVPSRFSGSGTGTDFTLTISSLQPEDFASYYCHQFNSYPDTFGQGTRLEIK
For B12, the FACS area under log transformed data MFI in [10] worked out at 12.

B13: Ab052 (antibody, IgG2, V domains shown)
VH: EVQLVQSGAEVKKPGESLKISCKGSGYRFTSYWIGWVRQMPGRGLEWMGIIYPGDSDTRYSPSFQGQVTISVDKSISTAYLQWSSLKASDTAMYYCATHHASGRGLDPWGQGTLVTVSS
VL: QAMLTQPASLSASPGASASLTCTLRSGINVVAYNIYWYRQKSGSPPQSVLRYKSDSDSERDSGVPSRFSGSKDVSANAGILLISGLQSEDEADYYCLIWHNSAWVFGGGTQLTVL
B13 yielded an FACS area under log transformed data MFI in assay [3] of 134. The FACS area under log transformed data MFI ratio (+insulin/-insulin) in [5] is 0.3.

(Values after patent US20160009800A1.)
